The target of test [1] is T1, hiR2-FL-T436V-T7 (human, UniProt Q6PJF5 1-856).
T1 sequence: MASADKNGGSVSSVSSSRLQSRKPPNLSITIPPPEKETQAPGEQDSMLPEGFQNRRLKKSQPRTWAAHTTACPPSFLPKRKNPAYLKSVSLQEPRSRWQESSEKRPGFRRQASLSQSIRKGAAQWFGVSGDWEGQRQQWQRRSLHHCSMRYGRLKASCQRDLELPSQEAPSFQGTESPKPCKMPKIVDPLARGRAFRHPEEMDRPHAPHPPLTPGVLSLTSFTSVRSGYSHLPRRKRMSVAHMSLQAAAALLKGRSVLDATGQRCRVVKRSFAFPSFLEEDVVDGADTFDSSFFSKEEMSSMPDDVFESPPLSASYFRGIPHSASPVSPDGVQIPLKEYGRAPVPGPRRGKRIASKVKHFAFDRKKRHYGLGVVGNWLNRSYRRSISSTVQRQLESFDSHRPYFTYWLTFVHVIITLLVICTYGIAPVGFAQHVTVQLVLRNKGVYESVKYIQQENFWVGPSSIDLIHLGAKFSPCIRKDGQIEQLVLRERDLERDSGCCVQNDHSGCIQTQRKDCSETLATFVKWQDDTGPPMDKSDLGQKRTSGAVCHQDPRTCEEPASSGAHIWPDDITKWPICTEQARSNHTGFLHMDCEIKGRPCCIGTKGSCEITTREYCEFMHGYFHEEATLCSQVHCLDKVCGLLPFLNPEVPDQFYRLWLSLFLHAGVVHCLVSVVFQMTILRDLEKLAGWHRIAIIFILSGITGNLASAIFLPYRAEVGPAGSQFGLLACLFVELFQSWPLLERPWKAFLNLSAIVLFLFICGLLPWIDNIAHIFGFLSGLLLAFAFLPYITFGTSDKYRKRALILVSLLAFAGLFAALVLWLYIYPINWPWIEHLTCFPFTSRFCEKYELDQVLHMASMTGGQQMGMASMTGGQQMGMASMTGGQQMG
Kind of test: FACS, MEF-DKO cells, 3 µg/ml. The text has this:
(§1) In brief, immortalized MEF-DKO-hiR2-FL-A431S-T7, MEF-DKO-hiR2-FL-V434E-T7, MEF-DKO-hiR2-FL-T436V-T7, MEF-DKO-hiR2-FL-Q437D-T7, MEF-DKO-hiR2-FL-L438S-T7, MEF-DKO-hiR2-FL-S448N-T7, MEF-DKO-hiR2-FL-I452V-T7, MEF-DKO-hiR2-FL-I464E-T7, MEF-DKO-hiR2-FL-D465A-T7, MEF-DKO-hiR2-FL-I477M-T7, MEF-DKO-hiR2-FL-K479Q-T7, MEF-DKO-hiR2-FL-G481P-T7, MEF-DKO-hiR2-FL-I483V-T7, MEF-DKO-hiR2-FL-E484H-T7, MEF-DKO-hiR2-FL-Q485S-T7, MEF-DKO-hiR2-FL-L486F-T7, MEF-DKO-hiR2-FL-V487I-T7, MEF-DKO-hiR2-FL-R489S-T7, MEF-DKO-hiR2-FL-E490A-T7, MEF-DKO-hiR2-FL-D492E-T7, MEF-DKO-hiR2-FL-L493R-T7, MEF-DKO-hiR2-FL-R495K-T7 and MEF-DKO-hiR2-FL-D496H-T7 cells were harvested with 10 mM EDTA in PBS, washed and resuspended in FACS buffer (PBS, 3% FBS, 0.05% sodium azide), and seeded in Nunc U-bottom 96-well plates (Thermo Fisher Scientific, USA) at approximately 1×10⁵ cells per well. To pellet cells and remove supernatants, the plates were centrifuged at 1,500 rpm and 4° C. for 3 minutes. For primary staining, cells were resuspended in 100 μl per well of either FACS buffer alone (controls) or the purified antibodies 3, 5, 16, 22, 34, 42, 43, 44, 48, and 50 of the invention at 3 μg/ml in FACS buffer and incubated on ice for 1 hour. Afterwards, plates were centrifuged at 1,500 rpm and 4° C. for 3 minutes and washed twice with 200 μl per well of FACS buffer. For secondary staining, cells were spun down and resuspended in 100 μl per well of PE-conjugated goat anti-mouse IgG F(ab′)2 detection fragment (Dianova, Germany) diluted 1:100 in FACS buffer. Protected from light, the cell suspensions were incubated on ice for 1 hour. Plates were then centrifuged at 1,500 rpm and 4° C. for 3 minutes and washed three times with 200 μl per well of FACS buffer. Finally, cells were resuspended in 150 μl per well of FACS buffer and analyzed using a BD Accuri™ C6 Plus flow cytometer (Becton Dickinson, Germany).
A general note: A flow cytometer gives signals particle by particle.

In test [2] the target is T2, hiR2-FL-I477M-T7 (human, UniProt Q6PJF5 1-856).
T2 sequence: T1 sequence with V436T, I477M
Briefly: FACS, MEF-DKO cells, 3 µg/ml.
Source text: as §1

Positions count from the first letter of the chain named.

B1: antibody 48 (antibody, V domains shown)
VH: QVQLQQSGTELVRPGTSVKVSCKASGYAFTNYLIEWVKQRPGQGLEWIGVINPGSGFTKYNEKFKGKATLTADKSSSTVYMHLSSLTSEDSAVYFCARGLYRAMDYWGQGTSVTVSS
VL: DIQMTQSPASQSASLGESVTITCLASQTIATWLAWYQQKPGKSPQLLIYGATTLADGVPSRFSGGGSGTKFSFKISSLQAEDFVSYYCQQLYSTPYTFGGGTKLEIK
notes: mouse IgG, kappa light chain; also called clone #48; purified antibody 48
As to B1, the “loss of binding vs wild type” value in test [1] and in test [2] was no less than 30% each time.

B2: antibody 50 (antibody, V domains shown)
VH: B1 VH with T9A, T16A, T30S, V79A, H82Q
VL: B1 VL with A30G, G50A, T52A, T53S, S85N, L91I
notes: mouse IgG, kappa light chain; also called clone #50; purified antibody 50
On to B2, for which the “loss of binding vs wild type” value in test [1] and in test [2] was no less than 30% throughout.

Source of the values: patent publication US20240287172A1 (SCIRHOM, published 2024).
